Article PMC7281375, “Therapeutic Targeting of Pancreatic Cancer via EphA2 Dimeric Agonistic Agents” (Pharmaceuticals, 2020)
“Also recorded” adds a separate entry of the source.

Key:
[1] = system: EphA2 receptor; details: monomeric agents; cited from earlier work
Excerpt: In order to evaluate the ability of each agent to activate the receptor, we tested them in various cellular assays as reported below. Because receptor activation causes its internalization and degradation, we opted to monitor the ability of each agent to reduce EphA2 levels over time, after exposure of cells to test ligands. […] First, we wanted to explore the effect of the linker length between the monomers and therefore tested side by sid ...

[2] = system: EphA2 receptor; assay: EphA2 degradation, Western blot of BxPC3 cell lysates; type: cell-based; details: BxPC3 cells, 1 h, several concentrations
Protocol: In order to evaluate the ability of each agent to activate the receptor, we tested them in various cellular assays as reported below. Because receptor activation causes its internalization and degradation, we opted to monitor the ability of each agent to reduce EphA2 levels over time, after exposure of cells to test ligands. […] For these experiments we initially treated HCT116 cells with 10 μM concentration of each agent for 2.5 h, and cells lysates were probed for total EphA2 using anti-EphA2 antibody (1C11A12; Thermo Fisher Scientific) (Figure 3a). […] Because these agents had optimized side chains, we expected these to work at much lower concentrations compared to dimeric agents derived from 135B12 (Table 1).
Figure 3 Dimeric and tetrameric EphA2 agonistic ligands degrade EphA2 receptor. […] Total ERK1/2 blot was used as a loading control.
Figure 5 Pharmacological inhibition of EphA2 expression partially impairs migration of pancreatic cancer cells. […] (c) Western blot of BxPC3 cell lysates after exposure for 5 min, 1 h or 24 h to indicated agents. (d) Representative images from treated wells at times 0 and 30 h. **, p < 0.005; ***, p < 0.001. Error bars represent standard deviation. […]

[3] = system: EphA2-KO BxPC3 cells; assay: Scratch wound cell migration assay (IncuCyte S3), EphA2-KO BxPC3; type: cell-based; details: EphA2-KO BxPC3, ephrinA1-Fc versus Fc
Excerpt: The monomeric, unbound EphA2 receptor is known to be pro-oncogenic, inducing cell migration of cancer cells, while ephrinA1-Fc, inducing EphA2 dimer formation can suppressed this activity. To more directly examine the effect EphA2 on pancreatic cancer cell migration we first prepared a stable BxPC3 EphA2 knockout (KO) cell line and monitored its migratory properties using the scratch wound method and live-cell analysis (IncuCyte S3, Sartorius) (Figure 4). Briefly, homogeneous scratch wounds on plated cells were created by a 96-pin mechanical device (WoundMaker, Sartorius, Göttingen, Germany). Subsequently, live-cell imaging was performed to monitor the rate of wound closure. As controls, we also tested wild-type (WT) BxPC3 cells, and each cell type was treated with ephrinA1-Fc, or Fc as control (Figure 4). […]
(§1) Cells were plated at 50 × 10^3 cells/well density in 96-well ImageLock plates (Sartorius). […] Plates were imaged every two hours using IncuCyte S3 (Sartorius), and relative wound areas were analyzed using the algorithm of the imager cell migration software module.

[4] = system: EphA2 receptor; assay: EphA2 degradation, Western blot of HCT116 cell lysates; type: cell-based; details: HCT116 cells, ephrinA1-Fc 1 μg/mL, 2.5 h
[5] = system: BxPC3 cells; assay: Cell proliferation during migration study; type: cell-based; details: BxPC3, treatments of the migration assay
Excerpt: Subsequently, we probed the effect of the pharmacological inhibition of EphA2 by our dimeric agents on the migratory properties of WT-BxPC3 in a similar assay (Figure 5a). […] Of note is that cell proliferation was not affected by either treatment with ephrinA1-Fc or by our agents.

[6] = system: WT-BxPC3 cells; assay: Scratch wound cell migration assay (IncuCyte S3), WT-BxPC3; type: cell-based
Excerpt: The monomeric, unbound EphA2 receptor is known to be pro-oncogenic, inducing cell migration of cancer cells, while ephrinA1-Fc, inducing EphA2 dimer formation can suppressed this activity. To more directly examine the effect EphA2 on pancreatic cancer cell migration we first prepared a stable BxPC3 EphA2 knockout (KO) cell line and monitored its migratory properties using the scratch wound method and live-cell analysis (IncuCyte S3, Sartorius) (Figure 4). Briefly, homogeneous scratch wounds on plated cells were created by a 96-pin mechanical device (WoundMaker, Sartorius, Göttingen, Germany). Subsequently, live-cell imaging was performed to monitor the rate of wound closure. As controls, we also tested wild-type (WT) BxPC3 cells, and each cell type was treated with ephrinA1-Fc, or Fc as control (Figure 4).
as §1, with “(Sartorius). The following day, cells were scratched using the WoundMaker (Sartorius) and washed three times with PBS. Subsequently, cells were treated with the indicated compounds in RPMI-1640 complete media.” for “(Sartorius).”

**Q.** For `COc1ccc(C[C@H](NC(=O)[C@H](C)NC(=O)[C@H](CC(C)C)NC(=O)c2oc3c(OC)c(OC)ccc3c2C)C(=O)N2CCC[C@H]2C(=O)N[C@@H](CC(=O)O)C(=O)N[C@@H](C)C(=O)N[C@H](C(=O)N2C[C@H](O)C[C@H]2C(=O)N[C@@H](Cc2ccc(Cl)cc2)C(=O)N[C@@H](CCCNC(=N)N)C(=O)N2CCC[C@H]2C(N)=O)C(C)C)cc1` [135H11], which “concentration at which receptor activation was shown” value [1] is on record?
**A.** Its value is at least 100 µM.

**Q.** Which EphA2 degradation [2] does the source give for `COc1ccc(C[C@H](NC(=O)[C@H](C)NC(=O)[C@H](CC(C)C)NC(=O)c2oc3c(OC)c(OC)ccc3c2C)C(=O)N2CCC[C@H]2C(=O)N[C@@H](CC(=O)O)C(=O)N[C@@H](C)C(=O)N[C@H](C(=O)N2C[C@H](O)C[C@H]2C(=O)N[C@@H](Cc2ccc(Cl)cc2)C(=O)N[C@@H](CCCNC(=N)N)C(=O)N2CCC[C@H]2C(=O)NCC(=O)NCCCC[C@H](NC(=O)CNC(=O)[C@@H]2CCCN2C(=O)[C@H](CCCNC(=N)N)NC(=O)[C@H](Cc2ccc(Cl)cc2)NC(=O)[C@@H]2C[C@@H](O)CN2C(=O)[C@@H](NC(=O)[C@H](C)NC(=O)[C@H](CC(=O)O)NC(=O)[C@@H]2CCCN2C(=O)[C@H](Cc2ccc(OC)cc2)NC(=O)[C@H](C)NC(=O)[C@H](CC(C)C)NC(=O)c2oc3c(OC)c(OC)ccc3c2C)C(C)C)C(=O)N[C@@H](CCCCN)C(=O)NCCCC[C@H](NC(=O)[C@H](CCCCN)NC(=O)[C@H](CCCCNC(=O)CNC(=O)[C@@H]2CCCN2C(=O)[C@H](CCCNC(=N)N)NC(=O)[C@H](Cc2ccc(Cl)cc2)NC(=O)[C@@H]2C[C@@H](O)CN2C(=O)[C@@H](NC(=O)[C@H](C)NC(=O)[C@H](CC(=O)O)NC(=O)[C@@H]2CCCN2C(=O)[C@H](Cc2ccc(OC)cc2)NC(=O)[C@H](C)NC(=O)[C@H](CC(C)C)NC(=O)c2oc3c(OC)c(OC)ccc3c2C)C(C)C)NC(=O)CNC(=O)[C@@H]2CCCN2C(=O)[C@H](CCCNC(=N)N)NC(=O)[C@H](Cc2ccc(Cl)cc2)NC(=O)[C@@H]2C[C@@H](O)CN2C(=O)[C@@H](NC(=O)[C@H](C)NC(=O)[C@H](CC(=O)O)NC(=O)[C@@H]2CCCN2C(=O)[C@H](Cc2ccc(OC)cc2)NC(=O)[C@H](C)NC(=O)[C@H](CC(C)C)NC(=O)c2oc3c(OC)c(OC)ccc3c2C)C(C)C)C(N)=O)C(C)C)cc1` [135I1] here?
**A.** The EphA2 degradation was “not significantly more effective than its dimeric counterpart; also recorded: successfully degraded EphA2 receptor at nanomolar concentrations”.

B1: ephrinA1-Fc: dimeric natural ligand of EphA2, Fc dimerized ephrinA1 (protein)
chain: DRHTVFWNSSNPKFRNEDYTIHVQLNDYVDIICPHYEDHSVADAAMEQYILYLVEHEEYQLCQPQSKDQVRWQCNRPSAKHGPEKLSEKFQRFTPFTLGKEFKEGHSYYYISKPIHQHEDRCLRLKVTVSGKITHSPQAHDNPQEKRLAADDPEVRVLHSIGHS
modifications: left off: Fc, end not stated, kept
**Q.** With B1 as the molecule, how does the “cell migration, rate of migration over 36 h” value [3] read?
**A.** Its value is “did not significantly decrease the rate of migration”.

**Q.** What about the “total EphA2 level (anti-EphA2 blot)” value [4] of the same molecule?
**A.** The value was “very effective in causing EphA2 degradation; also recorded: complete degradation of the receptor”.

**Q.** And the cell proliferation [5]?
**A.** Its cell proliferation is “not affected”.

**Q.** And the “cell migration, relative wound density at 36 h” value ([6]; WT BxPC3, 1 μg/mL, versus Fc)?
**A.** Its value is “WT cells treated with Fc migrated significantly faster than WT cells treated with ephrinA1-Fc”.

**Q.** What about the “cell migration, relative wound density after 30 h” value ([6]; WT-BxPC3, 1 µg/mL) of the same molecule?
**A.** The value was “significant decrease of cell migration”.
